Data: patent US20240116985A1, “STAPLED PEPTIDES AND METHODS THEREOF” (priority 2020, published 2024)
Starred links: 1 amine or outer side, 2 acyl side, 3 side chain; linkers in the order of their positions; H or OH if unused. Positions of bridges follow the written chain, without caps; N, C: chain ends. Non-standard residues stand in square brackets, D forms with d. Primed or numbered codes have the meaning given here. PyrS2″ = (S)-3-amino-1-((pent-4-en-1-yloxy)carbonyl)pyrrolidine-3-carboxylic acid (stapling residue), C=CCCCOC(=O)N1CC[C@@](N[*:1])(C(=O)[*:2])C1; B5(4) = 2,2-bis(4-pentenyl)glycine = 2-amino-2-(pent-4-en-1-yl)hept-6-enoic acid (stitching residue), C=CCCCC(CCCC=C)(N[*:1])C(=O)[*:2]; B5(5) = 2,2-bis(4-pentenyl)glycine, 2-amino-2-(pent-4-en-1-yl)hept-6-enoic acid (stitching residue), C=CCCCC(CCCC=C)(N[*:1])C(=O)[*:2]; B5(3) = 2,2-bis(4-pentenyl)glycine (stitching residue), C=CCCCC(CCCC=C)(N[*:1])C(=O)[*:2]; Phe(3-CF3) = N[C@@H](Cc1cccc(C(F)(F)F)c1)C(=O)O; Phe(4-CF3) = N[C@@H](Cc1ccc(C(F)(F)F)cc1)C(=O)O; Phe(3-OMe) = COc1cccc(C[C@H](N)C(=O)O)c1; Phe(2-Cl) = N[C@@H](Cc1ccccc1Cl)C(=O)O; 1Nal = N[C@@H](Cc1cccc2ccccc12)C(=O)O; 2Nal = N[C@@H](Cc1ccc2ccccc2c1)C(=O)O; Phe(2-F) = N[C@@H](Cc1ccccc1F)C(=O)O; Bta = N[C@@H](Cc1csc2ccccc12)C(=O)O; Lys(iPr) = CC(C)NCCCC[C@H](N)C(=O)O; αAllylPro = C=CC[C@@]1(C(=O)O)CCCN1; tBuAla = CC(C)(C)C[C@H](N)C(=O)O; 3Thi = N[C@@H](Cc1ccsc1)C(=O)O; Cha = N[C@@H](CC1CCCCC1)C(=O)O; hSer = N[C@@H](CCO)C(=O)O

B1: I-1120 (peptide)
peptide: Ac-[αAllylPro]D[Cha][B5(3)]DDAAFS[PyrS2″][Phe(2-Cl)][Bta]Q-NH2
modifications: staple 1-4, 4-11 (inferred); not fully specified (residue 9); printed as Ac-PL3-Asp-Cha-B5-Asp-Asp-Ala-Ala-4F3MeF-Ser-PyrS2-2C1F-BztA-Gln-NH2
B2: I-1126 (peptide)
peptide: Ac-[αAllylPro]D[Cha][B5(3)]DDAAFS[PyrS2″]F[Bta]Q-NH2
modifications: staple 1-4, 4-11 (inferred); not fully specified (residue 9); printed as Ac-PL3-Asp-Cha-B5-Asp-Asp-Ala-Ala-4F3MeF-Ser-PyrS2-Phe-BztA-Gln-NH2
B3: I-2355 (peptide)
peptide: Ac-[αAllylPro]N[Cha][B5(4)]DQ[hSer]AFL[PyrS2″]F[Bta]Q-NH2
modifications: staple 1-4, 4-11; also: later eluting isomer composition (HPLC), configuration not given here

Each binder was assayed against full-length beta-Catenin (Uniprot ID P35222) (Homo sapiens (Human)) (UniProt P35222) (assay: fluorescence polarization competition; 10 nM full-length beta-catenin + 10 nM 5FAM-TCF4 10-53 as competitor probe).
Target sequence in this assay (P35222 2-781 limits assumed): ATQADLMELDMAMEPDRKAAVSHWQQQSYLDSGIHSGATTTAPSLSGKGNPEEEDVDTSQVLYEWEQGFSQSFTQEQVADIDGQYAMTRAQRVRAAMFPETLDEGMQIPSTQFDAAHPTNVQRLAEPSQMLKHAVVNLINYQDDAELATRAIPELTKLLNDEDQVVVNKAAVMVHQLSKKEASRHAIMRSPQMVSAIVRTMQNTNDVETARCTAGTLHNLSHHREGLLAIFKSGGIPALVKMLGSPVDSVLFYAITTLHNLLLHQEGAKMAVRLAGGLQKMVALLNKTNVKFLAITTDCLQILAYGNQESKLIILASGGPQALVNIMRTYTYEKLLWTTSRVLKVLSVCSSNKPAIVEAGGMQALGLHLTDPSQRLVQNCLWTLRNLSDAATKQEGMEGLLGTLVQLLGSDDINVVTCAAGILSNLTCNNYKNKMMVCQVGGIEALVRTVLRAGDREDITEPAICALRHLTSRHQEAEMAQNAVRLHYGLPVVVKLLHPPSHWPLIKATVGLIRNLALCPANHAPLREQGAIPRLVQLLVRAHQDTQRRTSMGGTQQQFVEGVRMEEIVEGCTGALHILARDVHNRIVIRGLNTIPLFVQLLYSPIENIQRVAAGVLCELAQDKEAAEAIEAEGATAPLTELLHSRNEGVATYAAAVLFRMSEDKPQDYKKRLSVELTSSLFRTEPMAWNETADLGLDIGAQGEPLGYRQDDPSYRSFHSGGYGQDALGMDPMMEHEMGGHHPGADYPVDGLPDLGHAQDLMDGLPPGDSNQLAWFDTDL

Row | Binder | EC50 [nM]
1 | Ac-[αAllylPro]D[tBuAla][B5(5)]DNAAFT[PyrS2″][Phe(2-F)][Bta]S-NH2 (staple 1-4, 4-11) [I-1024] | 43
2 | Ac-[αAllylPro]F[tBuAla][B5(5)]DDAADN[PyrS2″][3Thi][Bta]Q-OH (staple 1-4, 4-11) [I-1027] | 1140
3 | Ac-[αAllylPro]D[tBuAla][B5(5)]DEAAFF[PyrS2″][Phe(2-Cl)][Bta][dT]-NH2 (staple 1-4, 4-11) [I-1038] | 101
4 | Ac-[αAllylPro]D[tBuAla][B5(5)]DEAAFL[PyrS2″][Phe(2-Cl)][Bta][dT]-NH2 (staple 1-4, 4-11) [I-1039] | 57

The binders below were run against full-length beta-Catenin (Uniprot ID P35222) (Homo sapiens (Human)) (UniProt P35222) (assay: fluorescence polarization competition, full-length beta-catenin, competitor 5FAM-TCF4 10-53).
Target sequence in this assay (P35222 whole entry): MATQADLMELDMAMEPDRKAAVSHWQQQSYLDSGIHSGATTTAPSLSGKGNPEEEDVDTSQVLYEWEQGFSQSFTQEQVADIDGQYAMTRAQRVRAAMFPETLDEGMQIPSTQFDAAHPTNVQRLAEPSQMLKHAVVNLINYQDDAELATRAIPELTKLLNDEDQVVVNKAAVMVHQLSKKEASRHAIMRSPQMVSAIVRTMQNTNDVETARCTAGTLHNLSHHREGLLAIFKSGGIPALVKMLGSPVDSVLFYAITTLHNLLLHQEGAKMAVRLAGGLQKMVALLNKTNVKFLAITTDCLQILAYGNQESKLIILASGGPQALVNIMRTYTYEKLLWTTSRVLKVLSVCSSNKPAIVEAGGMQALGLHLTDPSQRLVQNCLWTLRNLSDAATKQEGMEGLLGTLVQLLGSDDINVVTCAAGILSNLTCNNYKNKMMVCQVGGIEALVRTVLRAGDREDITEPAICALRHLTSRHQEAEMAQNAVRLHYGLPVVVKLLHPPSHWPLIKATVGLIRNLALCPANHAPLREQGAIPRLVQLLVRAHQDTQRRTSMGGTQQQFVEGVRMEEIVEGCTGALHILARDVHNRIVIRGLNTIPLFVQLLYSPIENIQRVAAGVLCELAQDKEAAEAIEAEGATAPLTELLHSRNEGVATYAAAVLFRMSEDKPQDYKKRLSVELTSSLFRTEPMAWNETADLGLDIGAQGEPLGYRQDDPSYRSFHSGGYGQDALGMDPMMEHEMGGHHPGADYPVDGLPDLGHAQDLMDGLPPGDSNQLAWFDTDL

Row | Binder | IC50 [nM]
5 | Ac-[αAllylPro]D[1Nal][B5(4)]DDAAFL[PyrS2″][Phe(2-Cl)][Bta]S-NH2 (staple 1-4, 4-11) [I-1116] | 40
6 | Ac-[αAllylPro]D[2Nal][B5(4)]DDAAFL[PyrS2″][Phe(2-Cl)][Bta]S-NH2 (staple 1-4, 4-11) [I-1117] | 55
7 | Ac-[αAllylPro]D[Cha][B5(4)]DDAA[Phe(3-OMe)]S[PyrS2″][Phe(2-Cl)][Bta]Q-NH2 (staple 1-4, 4-11) [I-1118] | 24
8 | Ac-[αAllylPro]D[Cha][B5(4)]DDAA[Phe(3-CF3)]S[PyrS2″][Phe(2-Cl)][Bta]Q-NH2 (staple 1-4, 4-11) [I-1119] | 26
9 | B1 | 85
10 | Ac-[αAllylPro]D[Cha][B5(3)]DDAA[Phe(3-OMe)]S[PyrS2″]F[Bta]Q-NH2 (staple 1-4, 4-11) [I-1124] | 12
11 | Ac-[αAllylPro]D[Cha][B5(3)]DDAA[Phe(3-CF3)]S[PyrS2″]F[Bta]Q-NH2 (staple 1-4, 4-11) [I-1125] | 16
12 | B2 | 32

Each binder was assayed against full-length beta-Catenin (Uniprot ID P35222) (Homo sapiens (Human)) (UniProt P35222) (assay: fluorescence polarization competition; full-length beta-catenin, competitor 5FAM-TCF4 10-53).
Target sequence in this assay (P35222 whole entry): as above

Row | Binder | IC50 [nM]
13 | Ac-[αAllylPro]D[tBuAla][B5(5)]DNAAFT[PyrS2″][Phe(2-F)][Bta]S-NH2 (staple 1-4, 4-11) [I-1024] | 43
14 | Ac-[αAllylPro]D[tBuAla][B5(5)]DEAAFF[PyrS2″][Phe(2-Cl)][Bta][dT]-NH2 (staple 1-4, 4-11) [I-1038] | 101
15 | Ac-[αAllylPro]D[tBuAla][B5(5)]DEAAFL[PyrS2″][Phe(2-Cl)][Bta][dT]-NH2 (staple 1-4, 4-11) [I-1039] | 57

The binders below were run against full-length beta-Catenin (Uniprot ID P35222) (Homo sapiens (Human)) (UniProt P35222) (assay: fluorescence polarization competition, 5FAM-TCF4 10-53 probe on full-length beta-catenin).
Target sequence in this assay (P35222 2-781 limits assumed): as the sequence (P35222 2-781 limits assumed) above

Row | Binder | EC50 [nM]
16 | Ac-[αAllylPro]D[1Nal][B5(4)]DDAAFL[PyrS2″][Phe(2-Cl)][Bta]S-NH2 (staple 1-4, 4-11) [I-1116] | 40
17 | Ac-[αAllylPro]D[2Nal][B5(4)]DDAAFL[PyrS2″][Phe(2-Cl)][Bta]S-NH2 (staple 1-4, 4-11) [I-1117] | 55
18 | Ac-[αAllylPro]D[Cha][B5(4)]DDAA[Phe(3-OMe)]S[PyrS2″][Phe(2-Cl)][Bta]Q-NH2 (staple 1-4, 4-11) [I-1118] | 24
19 | Ac-[αAllylPro]D[Cha][B5(4)]DDAA[Phe(3-CF3)]S[PyrS2″][Phe(2-Cl)][Bta]Q-NH2 (staple 1-4, 4-11) [I-1119] | 26
20 | B1 | 85
21 | Ac-[αAllylPro]D[Cha][B5(3)]DDAA[Phe(3-OMe)]S[PyrS2″]F[Bta]Q-NH2 (staple 1-4, 4-11) [I-1124] | 12
22 | Ac-[αAllylPro]D[Cha][B5(3)]DDAA[Phe(3-CF3)]S[PyrS2″]F[Bta]Q-NH2 (staple 1-4, 4-11) [I-1125] | 16
23 | B2 | 32

These binders were tested against full-length beta-Catenin (Uniprot ID P35222) (Homo sapiens (Human)) (UniProt P35222) (assay: fluorescence polarization competition; 10 nM full-length beta-catenin + 10 nM 5FAM-TCF4(10-53) probe; peptide titrated 10 uM to 5 nM).
Target sequence in this assay (P35222 2-781 limits assumed): as above

Row | Binder | IC50 [nM]
24 | Ac-[αAllylPro][hSer][Cha][B5(4)]DQ[Lys(iPr)]AFL[PyrS2″]F[Bta]Q-NH2 (staple 1-4, 4-11) [I-2353] | 2760
25 | Ac-[αAllylPro]N[Cha][B5(3)]DQ[hSer]AFL[PyrS2″]F[Bta]Q-NH2 (staple 1-4, 4-11; also: earlier eluting isomer, configuration not given here) [I-2354] | 100
26 | B3 | 417
